Km data for one protein are collected here from patent US11981935B2, “7β-hydroxysteroid dehydrogenase mutants and process for the preparation of ursodeoxycholic acid” (PharmaZell GmbH, priority 2010, dated 2024).

What all share (test): Kinetic constants of FDH (characterization of the mutant D221G)
Holding throughout (assay type): biochemical, Mycobacterium vaccae N10
Common to all, as to details: 37.0 °C

Substrate in series [1]: NC(=O)c1ccc[n+]([C@@H]2O[C@H](COP(=O)([O-])OP(=O)(O)OC[C@H]3O[C@@H](n4cnc5c(N)ncnc54)[C@H](O)[C@@H]3O)[C@@H](O)[C@H]2O)c1
The source says: (§1) The following vector constructs were used • pET22b(+) 7β-HSDH: a pET22b(+) vector into which the 7β-HSDH from Collinsella aerofaciens ATCC 25986 had been cloned via the Nde I and Hind III cleavage sites in the usual way. • pET22b(+) 3α-HSDH: a pET22b(+) vector into which the 3α-HSDH from Comamonas testosteroni had been cloned via the Nde I and EcoR I cleavage sites in the usual way (Oppermann et al., J Biochem, 1996, 241(3): 744-749). • pET21a(+) FDH D221G (cf. FIG. 4a): a pET21a(+) vector into which the formate dehydrogenase from Mycobacterium vaccae N10 had been cloned via the Nde I and EcoR I cleavage sites. With site-directed mutagenesis, the aspartate residue (D) at position 221 (without taking into account methionine in position 1) or position 222 (counting from methionine in position 1; cf. SEQ ID NO: 15, 19, 35) of formate dehydrogenase was replaced with a glycine residue (cf. production example 4, below). Formate dehydrogenase carries, at position 1202 of the nucleotide sequence, a single base deletion, which leads to exchange of the last amino acid valine for an alanine. Simultaneously, this base deletion leads to switching-off of the stop codon and to activation of the His·Tag that was originally outside of the reading frame (cf. SEQ ID NO: 34 and 35). • pET21a(+) 7β-HSDH: a pET21a(+) vector, into which the 7β-HSDH from Collinsella aerofaciens ATCC 25986 had been cloned via the Nde I and Xho I cleavage sites in the usual way • pET21a(+) FDH D221G 7β-HSDH (cf. FIG. 4b) • pET21a(+) FDH 7β-HSDH(G39A) 3α-HSDH (cf. FIG. 8) • pCOLA(mod) 3α-HSDH (cf. FIG. 5) Microorganisms
(§2) The production of an FDH mutant, which can regenerate not only NADH, but also NADHP, will be explained in more detail with the mutant D221G.
(§3) This can lead to repulsion of the phosphate group in the NADP^+, which is also negatively charged. The aspartate is therefore replaced with the small uncharged amino acid residue glycine (G).
(§4) First an LB preculture was inoculated from frozen stored material or with a colony from an agar plate and the preculture was incubated overnight. Incubation was carried out at 37° C. and 250 rpm. The OD of the preculture was determined and the culture was inoculated to an OD of 0.1. On reaching an OD of 0.5-1 (after about 2.5 h), it was induced with IPTG (final concentration 1 mM). The cells were harvested three hours after induction.
(§5) The cells were disrupted mechanically with glass beads. For this, 0.5 mL of glass beads were added to 0.5 mL of cell sample in a 1.5-mL reaction vessel and the reaction vessel was shaken for 3 min at maximum frequency (30 s^−1) in a Retsch vibratory mill. After cell maceration, the glass beads were centrifuged off (2 min, 13000 rpm). Before and after maceration, the culture was put on ice, to minimize protein denaturation through heating of the sample in the vibratory mill. This maceration protocol is optimized for the use of samples frozen at −20° C.
(§6) Summary of kinetic constants of FDH at pH 6, 7 and 8.

Substrate in series [2]: O=CO
From the text: as §1, §2, §3, §4, §5, §6

Substrate in series [3]: NC(=O)c1ccc[n+]([C@@H]2O[C@H](COP(=O)([O-])OP(=O)(O)OC[C@H]3O[C@@H](n4cnc5c(N)ncnc54)[C@H](OP(=O)(O)O)[C@@H]3O)[C@@H](O)[C@H]2O)c1
From the text: as §1, §2, §3, §4, §5, §6

The mark [4] stands for this setting: other: pH 6, substrate sodium formate, pH 6.0.
Setting [5] is: other: pH 7, substrate sodium formate, pH 7.0.
[6] abbreviates: other: pH 8, substrate sodium formate, pH 8.0.

B1: Mycobacterium vaccae formate dehydrogenase (FDH) mutant D221G (= D222G of SEQ ID NO:36; SEQ ID NO: 15, 19, 35) (Mycolicibacterium vaccae; D222G) (protein)
chain: MAKVLCVLYDDPVDGYPKTYARDDLPKIDHYPGGQILPTPKAIDFTPGQLLGSVSGELGLREYLESNGHTLVVTSDKDGPDSVFERELVDADVVISQPFWPAYLTPERIAKAKNLKLALTAGIGSDHVDLQSAIDRNVTVAEVTYCNSISVAEHVVMMILSLVRNYLPSHEWARKGGWNIADCVSHAYDLEAMHVGTVAAGRIGLAVLRRLAPFDVHLHYTGRHRLPESVEKELNLTWHATREDMYPVCDVVTLNCPLHPETEHMINDETLKLFKRGAYIVNTARGKLCDRDAVARALESGRLAGYAGDVWFPQPAPKDHPWRTMPYNGMTPHISGTTLTAQARYAAGTREILECFFEGRPIRDEYLIVQGGALAGTGAHSYSKGNATGGSEEAAKFKKAAENSSSVDKLAAALEHHHHHH
notes: single-base deletion at the 3' end gives C-terminal read-through His-tag (last Val to Ala)
Broadly, the Km is the substrate concentration at which the rate is half of its maximum. For B1, the Michaelis-Menten constant (Km) was 830 µM in series [1] (setting [4]); 610 µM in series [1] (setting [5]); 520 µM in series [1] (setting [6]); 46860 µM in series [2] (other: pH 6, cofactor NAD^+, pH 6.0); 45560 µM in series [2] (other: pH 7, cofactor NAD^+, pH 7.0); 59260 µM in series [2] (other: pH 8, cofactor NAD^+, pH 8.0). The results for the Km in series [3] (setting [4]), in series [3] (setting [5]) and in series [3] (setting [6]) were 300 µM, 510 µM and 1010 µM, respectively.
